A word on the stoichiometry N: it is a count of units in the complex or per binding partner.

T1: S. cerevisiae Vps4p (wild type) (S. cerevisiae, UniProt P52917 1-437)
T1 sequence (looked up): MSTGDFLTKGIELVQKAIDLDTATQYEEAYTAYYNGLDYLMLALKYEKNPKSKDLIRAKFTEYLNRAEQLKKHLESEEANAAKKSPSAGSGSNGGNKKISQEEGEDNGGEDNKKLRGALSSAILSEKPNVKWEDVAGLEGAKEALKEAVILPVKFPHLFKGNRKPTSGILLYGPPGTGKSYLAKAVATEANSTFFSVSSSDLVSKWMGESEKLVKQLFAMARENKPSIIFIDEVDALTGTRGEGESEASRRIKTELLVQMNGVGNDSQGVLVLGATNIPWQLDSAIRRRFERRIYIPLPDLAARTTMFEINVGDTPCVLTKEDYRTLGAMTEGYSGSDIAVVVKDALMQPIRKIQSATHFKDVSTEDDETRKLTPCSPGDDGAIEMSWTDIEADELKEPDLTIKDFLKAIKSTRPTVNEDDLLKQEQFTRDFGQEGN

B1: SsoVps4(85-372, E206Q) (domain or fragment, Sulfolobus solfataricus, UniProt Q97ZJ7 85-372, looked up)
chain: NTSPPEEVVITEKPKVSFKDIVGLDDVKEALREAIIYPTKRPDLFPLGWPRGILLYGPPGCGKTMIAAAVANEIDSIFMQLDAASVMSKWLGEAEKNVANVFKMAREESKKQNKPAIIFIDQLDALLGVYSTEVGGEARVRNQFLKEMDGLLDKSENYKVYVIGATNKPWRLDEAFLRRFQKRIYVPLPDYEQRLSLFKYYTSKIKLDTEVSLEELAKLTEGYTASDIRDIVQAAHIKVVKEMFKNNLGEPRTITLQDFKDILKVRMPSVNPELIKAYEAWTEKFKAL
modifications: selenomethionine-substituted
B2: S. cerevisiae Vps4p(E233Q) (enzyme, UniProt P52917 1-437, looked up)
chain: T1 sequence (looked up) with E233Q
B3: Sulfolobus solfataricus Vps4 (SsoVps4, wild type) (enzyme, UniProt Q97ZJ7 1-372, looked up)
chain: MSAQVMLEDMARKYAILAVKADKEGKVEDAITYYKKAIEVLSQIIVLYPESVARTAYEQMINEYKKRISYLEKVLPASSDGSGDNTSPPEEVVITEKPKVSFKDIVGLDDVKEALREAIIYPTKRPDLFPLGWPRGILLYGPPGCGKTMIAAAVANEIDSIFMQLDAASVMSKWLGEAEKNVANVFKMAREESKKQNKPAIIFIDELDALLGVYSTEVGGEARVRNQFLKEMDGLLDKSENYKVYVIGATNKPWRLDEAFLRRFQKRIYVPLPDYEQRLSLFKYYTSKIKLDTEVSLEELAKLTEGYTASDIRDIVQAAHIKVVKEMFKNNLGEPRTITLQDFKDILKVRMPSVNPELIKAYEAWTEKFKAL
B4: SsoVps4(F328A) (enzyme, Sulfolobus solfataricus, UniProt Q97ZJ7 1-372, looked up)
chain: B3 chain with F328A
B5: SsoVps4(R263A) (enzyme, Sulfolobus solfataricus, UniProt Q97ZJ7 1-372, looked up)
chain: B3 chain with R263A
B6: SsoVps4(E206Q) (enzyme, Sulfolobus solfataricus, UniProt Q97ZJ7 1-372, looked up)
chain: B3 chain with E206Q
B7: SsoVps4(R262A) (enzyme, Sulfolobus solfataricus, UniProt Q97ZJ7 1-372, looked up)
chain: B3 chain with R262A
B8: S. cerevisiae Vta1p (natural protein, UniProt Q06263 1-330, looked up)
chain: MASNAARVVATAKDFDKVGLGIIGYYLQLYAVELILSEEDRSQEMTALATELLDTIEAFKKEIGGESEAEDSDKSLHVMNTLIHDQEKAKIYMLNFTMSLYNEKLKQLKDGPWDVMLKRSLWCCIDLFSCILHLWKENISETSTNSLQKRIKYCKIYLSKLAKGEIGSSDEKTLDYADFADDSEEIKDEDVDHQTSDLENNNNDKVEGLAPKDQTTSYEPVDEVPEFIDDADSVNEEEQTVDKNEDAITKDEQQVVKKEVDLTRPSAPSEPAAAEHKSYTKDELTKIMDRASKIEQIQKLAKYAISALNYEDLPTAKDELTKALDLLNSI

Substitutions are numbered along the chain they refer to. Numbers in names are those of the source.

The series “crystal structure” deals with the molecule itself. The series can be described thus: crystal structure.
Series [1] deals with the molecule itself. Briefly: SEC.
Series [2] concerns the molecule itself. Briefly: SEC. This is another data set of the same source.
Series [3] deals with the molecule itself. The series can be described thus: SEC. This is another data set of the same source. Background: SEC sorts molecules by how far they enter the pores of the column.
The series “AUC” deals with the molecule itself. Briefly: AUC.
Series [4] concerns the molecule itself. Briefly: SEC. This is another data set of the same source.
Series [5] deals with the molecule itself. Briefly: SEC. The source holds these as a separate data set.
Series [6] addresses B2. The series can be described thus: SEC.
The target in series [7] is T1, S. cerevisiae Vps4p (wild type). Briefly: SEC.

As to B1, the binding result in the series “crystal structure” is listed as “binds”.
Consider B2, for which the “stoichiometry N” value in “SEC [1]” came to 6; in “SEC [2]” it was 12.
Consider B3, for which the “stoichiometry N” value was around 6 in “SEC [3]”, 6 in “AUC” and 12 in the series “SEC [4]”.
B4: the “stoichiometry N” value in “SEC [3]” was determined as 2.
For the molecule B5, the binding result in “SEC [5]” is “binds”.
On to B6, for which the figures for the “stoichiometry N” value in the series “SEC [3]” and in “SEC [4]” were around 6 and 12, respectively.
With B7, the binding result in “SEC [5]” is “binds”.
With B8, the binding result in series [6] and in series [7] was “binds” in each case.

The record behind these values is paper PMC3919030 (Journal of molecular biology, 2013).
